Patent publication EP4640709A1 (CHIOME BIOSCIENCE INC., dated 2025)
Where two headings read alike, the source gives them in different places.

How the values were obtained:
[1] = biological target: T1, human CX3CR1 (human, UniProt P49238 1-355); experiment: binding to hCX3CR1-expressing Eurofins cells
T1 construct: Expressed on Ba/F3 cells (made by the inventors from P49238-1); also called hCX3CR1
T1 sequence: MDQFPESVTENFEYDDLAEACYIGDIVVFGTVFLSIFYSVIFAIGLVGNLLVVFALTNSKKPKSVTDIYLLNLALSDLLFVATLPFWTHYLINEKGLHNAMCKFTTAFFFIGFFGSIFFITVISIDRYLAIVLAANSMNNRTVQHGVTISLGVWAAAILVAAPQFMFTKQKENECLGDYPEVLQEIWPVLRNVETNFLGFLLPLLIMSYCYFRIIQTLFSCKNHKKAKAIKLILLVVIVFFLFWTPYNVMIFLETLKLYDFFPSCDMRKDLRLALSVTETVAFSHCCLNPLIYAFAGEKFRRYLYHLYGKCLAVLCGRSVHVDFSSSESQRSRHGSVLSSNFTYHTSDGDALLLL

[2] = biological target: T1, human CX3CR1; experiment: cell-based or functional assay
[3] = biological target: T2, mouse CX3CR1 (mouse, UniProt Q9Z0D9 1-354); experiment: flow cytometry, CX3CR1-expressing Ba/F3 cells, relative to Synagis
T2 construct: whole, on cells; Expressed on Ba/F3 cells; also called mCX3CR1
T2 sequence (looked up): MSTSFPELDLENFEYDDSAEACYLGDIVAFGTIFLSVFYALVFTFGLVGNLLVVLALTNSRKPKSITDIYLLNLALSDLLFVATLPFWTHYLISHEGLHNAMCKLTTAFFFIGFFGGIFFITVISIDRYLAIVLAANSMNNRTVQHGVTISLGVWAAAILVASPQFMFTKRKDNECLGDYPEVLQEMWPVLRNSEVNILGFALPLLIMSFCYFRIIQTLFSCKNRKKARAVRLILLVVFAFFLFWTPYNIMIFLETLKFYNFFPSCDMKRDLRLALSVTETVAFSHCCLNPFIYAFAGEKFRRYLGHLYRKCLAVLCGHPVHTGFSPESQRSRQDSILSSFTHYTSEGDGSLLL

[4] = biological target: T3, rat CX3CR1 (rat, UniProt P35411 1-354); experiment: as above
T3 construct: whole, on cells; Expressed on Ba/F3 cells; also called rCX3CR1
T3 sequence (looked up): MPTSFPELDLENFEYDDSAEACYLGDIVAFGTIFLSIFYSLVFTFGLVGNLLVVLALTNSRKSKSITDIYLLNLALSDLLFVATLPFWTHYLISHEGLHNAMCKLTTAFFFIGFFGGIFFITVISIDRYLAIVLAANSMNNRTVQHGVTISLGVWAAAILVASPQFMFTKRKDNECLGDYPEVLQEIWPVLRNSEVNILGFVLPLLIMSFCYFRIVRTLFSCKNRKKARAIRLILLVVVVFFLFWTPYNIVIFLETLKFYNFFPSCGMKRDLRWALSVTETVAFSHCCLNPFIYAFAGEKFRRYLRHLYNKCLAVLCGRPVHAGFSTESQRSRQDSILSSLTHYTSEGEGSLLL

[5] = biological target: T1, human CX3CR1; experiment: flow cytometry, binding to hCX3CR1-expressing Ba/F3 cells
[6] = biological target: T1, human CX3CR1; experiment: flow cytometry, chimeric CX3CR1-expressing Ba/F3 cells, 200 nM, grade vs positive antibody (+++ >70%, ++ 40-70%, + 10-40%, - <10%)
[7] = biological target: T4, hCX3CR1-3 (chimeric CX3CR1); experiment: as above
T4 construct: Whole, on Ba/F3 cells

[8] = biological target: T5, hCX3CR1-4 (chimeric CX3CR1); experiment: as above
T5 construct: Whole, on Ba/F3 cells

[9] = biological target: T6, hCX3CR1-1 (chimeric CX3CR1); experiment: as above
T6 construct: Whole, on Ba/F3 cells

[10] = biological target: T7, mCX3CR1-1 (chimeric CX3CR1); experiment: as above
T7 construct: Whole, on Ba/F3 cells

[11] = biological target: T8, hCX3CR1-2 (chimeric CX3CR1); experiment: as above
T8 construct: Whole, on Ba/F3 cells

[12] = biological target: T1, human CX3CR1; experiment: cell-based or functional assay; remark: listed apart in the source
[13] = biological target: T2, mouse CX3CR1; experiment: flow cytometry, CX3CR1-expressing Ba/F3 cells
[14] = biological target: T3, rat CX3CR1; experiment: flow cytometry, CX3CR1-expressing Ba/F3 cells
[15] = biological target: T2, mouse CX3CR1; experiment: flow cytometry, chimeric CX3CR1-expressing Ba/F3 cells
[16] = biological target: T9, mCX3CR1-4 (chimeric CX3CR1); experiment: as above
T9 construct: Whole, on Ba/F3 cells

[17] = biological target: T10, mCX3CR1-3 (chimeric CX3CR1); experiment: as above
T10 construct: Whole, on Ba/F3 cells

[18] = biological target: T11, mCX3CR1-2 (chimeric CX3CR1); experiment: as above
T11 construct: Whole, on Ba/F3 cells

[19] = biological target: T1, human CX3CR1; experiment: cell-based or functional assay; remark: listed apart in the source
[20] = biological target: T9, mCX3CR1-4 (chimeric CX3CR1); experiment: flow cytometry, chimeric CX3CR1-expressing Ba/F3 cells, 200 nM, grade vs positive antibody (+++ >70%, ++ 40-70%, + 10-40%, - <10%)
[21] = biological target: T1, human CX3CR1; experiment: flow cytometry, EC50 on hCX3CR1-expressing Ba/F3 cells, against m1F8

| Binder | EC50 [1] [nM] | Cell migration inhibitory activity (IC50, nM) [2] [nM] | EC50 [5] [nM] | relative measured value (flow cytometry reactivity, MFI) compared to positive antibody at 200 nM [6] [%] | relative measured value (flow cytometry reactivity, MFI) compared to positive antibody at 200 nM [7] [%] | relative measured value (flow cytometry reactivity, MFI) compared to positive antibody at 200 nM [8] [%] | relative measured value (flow cytometry reactivity, MFI) compared to positive antibody at 200 nM [9] [%] | relative measured value (flow cytometry reactivity, MFI) compared to positive antibody at 200 nM [10] [%] | relative measured value (flow cytometry reactivity, MFI) compared to positive antibody at 200 nM [11] [%] | Cell migration inhibitory activity (IC50, nM) [12] [nM] | binding result [13] | binding result [14] | relative measured value (flow cytometry reactivity, MFI) compared to positive antibody at 200 nM [15] [%] | relative measured value (flow cytometry reactivity, MFI) compared to positive antibody at 200 nM [17] [%] | relative measured value (flow cytometry reactivity, MFI) compared to positive antibody at 200 nM [18] [%] | other results |
| --- | --- | --- | --- | --- | --- | --- | --- | --- | --- | --- | --- | --- | --- | --- | --- | --- |
| h1F8-2-1 (antibody, V domains shown, Humanized antibody; also called humanized 1F8 antibody h1F8-2-1) VH: QVQLVQSGAEVKKPGSSVKVSCKASGFTFTNYWMQWIRQAPGQGLEWIGAIYPGSGESRYTRKFKGRATITADKSTSTAYMELSSLRSEDTAVYYCARWAGYSRNAAYWGQGTLVTVSS VL: DIVMTQTPLSLPVTPGEPASISCRSRQSIVHSSGNTYLEWYLQKPGQSPQLLIYKVSNRFSGVPDRFSGSGSGTDFTLKISRVEAEDVGVYYCFQGSHIPPTFGGGTKVEIK | 4.42 | 2.02 | – | – | – | – | – | – | – | – | – | – | – | – | – | – |
| h1F8-2-2 antibody (antibody, IgG1, V domains shown, Humanized antibody; also called humanized 1F8 antibody (h1F8-2-2)) VH: QVQLVQSGAEVKKPGSSVKVSCKASGFTFTNYWMQWIRQAPGQGLEWIGAIYPGSGESRYTRKFKGKATITADKSTSTAYMELSSLRSEDTAVYYCARWAGYSRNAAYWGQGTLVTVSS VL: DIVMTQTPLSLPVTPGEPASISCRSRQSIVHSSGNTYLEWYLQKPGQSPQLLIYKVSNRFSGVPDRFSGSGSGTDFTLKISRVEAEDVGVYYCFQGSHIPPTFGGGTKVEIK | 3.1 | 1.27 | – | – | – | – | – | – | – | – | – | – | – | – | – | binding result [3]: no binding; binding result [4]: no binding |
| h1F8-2-3 (antibody, V domains shown, Humanized antibody; also called humanized 1F8 antibody h1F8-2-3) VH: QVQLVQSGAEVKKPGSSVKVSCKASGFTFTNYWMQWIRQAPGQGLEWIGAIYPGSGESRYTRKFKGRATLTADKSTSTAYMELSSLRSEDTAVYYCARWAGYSRNAAYWGQGTLVTVSS VL: DIVMTQTPLSLPVTPGEPASISCRSRQSIVHSSGNTYLEWYLQKPGQSPQLLIYKVSNRFSGVPDRFSGSGSGTDFTLKISRVEAEDVGVYYCFQGSHIPPTFGGGTKVEIK | 4.02 | 1.4 | – | – | – | – | – | – | – | – | – | – | – | – | – | – |
| h1F8-2-4 (antibody, V domains shown, Humanized antibody; also called humanized 1F8 antibody h1F8-2-4) VH: QVQLVQSGAEVKKPGSSVKVSCKASGFTFTNYWMQWIRQAPGQGLEWIGAIYPGSGESRYTRKFKGRVTITADKSTSTAYMELSSLRSEDTAVYYCARWAGYSRNAAYWGQGTLVTVSS VL: DIVMTQTPLSLPVTPGEPASISCRSRQSIVHSSGNTYLEWYLQKPGQSPQLLIYKVSNRFSGVPDRFSGSGSGTDFTLKISRVEAEDVGVYYCFQGSHIPPTFGGGTKVEIK | 4.42 | 2.61 | – | – | – | – | – | – | – | – | – | – | – | – | – | – |
| m1F8-1 antibody (antibody, V domains shown, also called activity-enhanced m1F8 antibody) VH: QVQLQQSGAELARPGASVKLSCKASGFTFTNYWMQWIKQRPGQGLEWIGAIYPGSGESRYTRKFKGKATLTADKSSSTAYMQLNSLASEDSAVYYCARWAGYSRNAAYWGQGTLVTVSA VL: DVLMTQTPLSLPVSLGDQASISCRSSQSIVHSSGNTYLEWYLQKPGQSPKLLIYKVSNRFSGVPDRFSGSGSGTDFTLKISRVEAEDLGVYYCFQGSHIPPTFGGGTKLEIK | – | – | 6.69 | > 70 | > 70 | > 70 | 40 to 70 | > 70 | > 70 | 5.32 | no binding (tested: <10% of positive antibody at 200 nM) | no binding (tested: <10% of positive antibody at 200 nM) | < 10 | < 10 | < 10 | relative measured value (flow cytometry reactivity, MFI) compared to positive antibody at 200 nM [16]: < 10% |
| m1F8-2 antibody (antibody, V domains shown, also called activity-enhanced m1F8 antibody) VH: QVQLQQSGAELARPGASVKLSCKASGFTFTNYWMQWIKQRPGQGLEWIGAIYPGSGESRYTRKFKGKATLTADKSSSTAYMQLNSLASEDSAVYYCARWAGYSRNAAYWGQGTLVTVSA VL: DVLMTQTPLSLPVSLGDQASISCRSRQSIVHSSGNTYLEWYLQKPGQSPKLLIYKVSNRFSGVPDRFSGSGSGTDFTLKISRVEAEDLGVYYCFQGSHIPPTFGGGTKLEIK | – | – | 2.67 | > 70 | > 70 | > 70 | 40 to 70 | > 70 | > 70 | 2.96 | no binding (tested: <10% of positive antibody at 200 nM) | no binding (tested: <10% of positive antibody at 200 nM) | < 10 | < 10 | < 10 | improvement in inhibitory activity against fractalkine-dependent cell migration compared to the original m1F8 antibody [19]: ≥ 15 fold; relative measured value (flow cytometry reactivity, MFI) compared to positive antibody at 200 nM [20]: 10 to 40%; fold improvement in binding activity compared to the original m1F8 antibody [21]: ≥ 70 fold |
